Laboratory results: IntAct's records for PubMed 30659753

B1: Protein KHNYN (Homo sapiens), O15037 (parent)
chain: MPTWGARPASPDRFAVSAEAENKVREQQPHVERIFSVGVSVLPKDCPDNPHIWLQLEGPKENASRAKEYLKGLCSPELQDEIHYPPKLHCIFLGAQGFFLDCLAWSTSAHLVPRAPGSLMISGLTEAFVMAQSRVEELAERLSWDFTPGPSSGASQCTGVLRDFSALLQSPGDAHREALLQLPLAVQEELLSLVQEASSGQGPGALASWEGRSSALLGAQCQGVRAPPSDGRESLDTGSMGPGDCRGARGDTYAVEKEGGKQGGPREMDWGWKELPGEEAWEREVALRPQSVGGGARESAPLKGKALGKEEIALGGGGFCVHREPPGAHGSCHRAAQSRGASLLQRLHNGNASPPRVPSPPPAPEPPWHCGDRGDCGDRGDVGDRGDKQQGMARGRGPQWKRGARGGNLVTGTQRFKEALQDPFTLCLANVPGQPDLRHIVIDGSNVAMVHGLQHYFSSRGIAIAVQYFWDRGHRDITVFVPQWRFSKDAKVRESHFLQKLYSLSLLSLTPSRVMDGKRISSYDDRFMVKLAEETDGIIVSNDQFRDLAEESEKWMAIIRERLLPFTFVGNLFMVPDDPLGRNGPTLDEFLKKPARTQGSSKAQHPSRGFAEHGKQQQGREEEKGSGGIRKTRETERLRRQLLEVFWGQDHKVDFILQREPYCRDINQLSEALLSLNF

Variants of: B1
Details: with nedd8_human NEDD8, Q15843
Sequence of nedd8_human NEDD8, Q15843 (Q15843 whole entry): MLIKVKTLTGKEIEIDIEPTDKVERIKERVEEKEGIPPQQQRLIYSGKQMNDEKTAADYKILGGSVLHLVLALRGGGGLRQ

Variant | effect of a mutation on the interaction
W647A | decreasing interaction
W647P | decreasing interaction
H651F | decreasing interaction
K652D | decreasing interaction
R659E | decreasing interaction
R664E | decreasing interaction
